The text below walks through data of patent US20230346967A1 (published 2023).

The target in one experiment is T1, recombinant human TfR1 (human, UniProt P02786 89-760).
T1 construct: also called hTfR1; huTfR1
Nature of the experiment: printed: DMPK oligo conjugate binding to hTfR1.

The target of the next experiment is T2, recombinant human TfR2 (human, UniProt Q9UP52 105-801, limits assumed).
T2 construct: also called hTfR2; transferrin receptor 2
T2 sequence (looked up): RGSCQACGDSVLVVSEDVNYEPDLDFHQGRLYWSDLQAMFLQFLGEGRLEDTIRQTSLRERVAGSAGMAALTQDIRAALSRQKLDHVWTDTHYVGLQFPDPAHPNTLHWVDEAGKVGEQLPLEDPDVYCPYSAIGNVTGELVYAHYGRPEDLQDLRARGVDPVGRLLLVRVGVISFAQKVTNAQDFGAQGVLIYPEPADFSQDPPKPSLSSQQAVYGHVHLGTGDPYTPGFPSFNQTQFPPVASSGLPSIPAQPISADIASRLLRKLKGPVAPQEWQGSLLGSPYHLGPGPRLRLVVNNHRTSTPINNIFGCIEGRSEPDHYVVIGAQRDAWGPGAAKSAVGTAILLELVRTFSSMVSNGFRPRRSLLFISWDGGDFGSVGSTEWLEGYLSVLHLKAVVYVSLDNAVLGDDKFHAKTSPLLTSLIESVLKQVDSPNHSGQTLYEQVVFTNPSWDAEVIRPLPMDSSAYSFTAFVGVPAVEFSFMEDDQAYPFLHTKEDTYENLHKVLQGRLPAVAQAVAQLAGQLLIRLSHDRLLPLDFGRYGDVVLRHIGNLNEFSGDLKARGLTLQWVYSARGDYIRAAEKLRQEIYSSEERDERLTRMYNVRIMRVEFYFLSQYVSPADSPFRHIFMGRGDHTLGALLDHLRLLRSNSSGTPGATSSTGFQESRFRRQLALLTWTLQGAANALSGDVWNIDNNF
Nature of the experiment: SPR.

The next experiment has as its target recombinant mouse TfR1 (mouse, UniProt Q62351 89-763). The experiment is described as follows: ELISA, plates precoated with recombinant TfR1. Here is the method: (§1) Serial dilutions of the Fab were added to plates precoated with recombinant human, cynomolgus monkey, mouse, or rat TfR1. After a short incubation, binding of the Fab was quantified by addition of a fluorescently tagged anti-(H+L) IgG secondary antibody and measurement of fluorescence intensity at 495 nm excitation and 520 nm emission.
Background: ELISA stands for enzyme-linked immunosorbent assay.

The target in the next experiment is recombinant rat TfR1 (rat, UniProt Q99376 89-761, limits assumed). Nature of the experiment: ELISA, plates precoated with recombinant TfR1. Here is the method: as §1
Sequence of recombinant rat TfR1 (Q99376 89-761 limits assumed): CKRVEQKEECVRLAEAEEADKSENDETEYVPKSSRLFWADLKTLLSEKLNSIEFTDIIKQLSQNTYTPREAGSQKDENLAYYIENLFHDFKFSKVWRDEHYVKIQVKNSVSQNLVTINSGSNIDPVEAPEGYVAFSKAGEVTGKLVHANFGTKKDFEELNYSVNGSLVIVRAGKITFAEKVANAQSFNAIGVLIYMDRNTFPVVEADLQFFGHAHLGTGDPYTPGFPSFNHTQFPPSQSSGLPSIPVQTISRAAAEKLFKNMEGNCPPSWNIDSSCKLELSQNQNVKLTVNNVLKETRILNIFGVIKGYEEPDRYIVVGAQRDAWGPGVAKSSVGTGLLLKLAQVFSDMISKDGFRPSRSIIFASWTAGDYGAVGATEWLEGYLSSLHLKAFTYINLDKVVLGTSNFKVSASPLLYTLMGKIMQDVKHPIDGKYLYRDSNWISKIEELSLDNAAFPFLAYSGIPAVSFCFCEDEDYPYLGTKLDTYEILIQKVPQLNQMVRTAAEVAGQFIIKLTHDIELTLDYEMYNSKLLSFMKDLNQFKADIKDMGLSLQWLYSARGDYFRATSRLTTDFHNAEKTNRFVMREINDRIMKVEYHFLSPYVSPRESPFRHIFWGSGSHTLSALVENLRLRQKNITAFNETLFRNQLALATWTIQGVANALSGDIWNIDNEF

T1 sequence (P02786 89-760 limits assumed): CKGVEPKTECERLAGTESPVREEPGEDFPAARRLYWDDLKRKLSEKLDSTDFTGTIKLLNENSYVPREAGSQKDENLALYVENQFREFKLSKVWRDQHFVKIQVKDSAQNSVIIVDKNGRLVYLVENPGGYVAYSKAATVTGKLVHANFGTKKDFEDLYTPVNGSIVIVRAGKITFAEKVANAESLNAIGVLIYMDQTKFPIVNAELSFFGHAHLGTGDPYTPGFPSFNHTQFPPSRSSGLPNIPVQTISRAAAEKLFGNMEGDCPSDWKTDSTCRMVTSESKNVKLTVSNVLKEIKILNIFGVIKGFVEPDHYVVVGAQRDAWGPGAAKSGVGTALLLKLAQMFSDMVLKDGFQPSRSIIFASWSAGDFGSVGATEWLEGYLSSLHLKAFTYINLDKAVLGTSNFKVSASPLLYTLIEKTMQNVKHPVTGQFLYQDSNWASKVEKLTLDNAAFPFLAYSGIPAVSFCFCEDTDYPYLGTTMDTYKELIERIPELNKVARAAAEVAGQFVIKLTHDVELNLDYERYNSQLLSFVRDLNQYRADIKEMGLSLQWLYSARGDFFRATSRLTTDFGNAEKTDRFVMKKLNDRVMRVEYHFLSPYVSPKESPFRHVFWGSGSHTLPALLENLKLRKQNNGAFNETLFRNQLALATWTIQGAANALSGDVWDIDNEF
Sequence of recombinant mouse TfR1 (Q62351 89-763 limits assumed): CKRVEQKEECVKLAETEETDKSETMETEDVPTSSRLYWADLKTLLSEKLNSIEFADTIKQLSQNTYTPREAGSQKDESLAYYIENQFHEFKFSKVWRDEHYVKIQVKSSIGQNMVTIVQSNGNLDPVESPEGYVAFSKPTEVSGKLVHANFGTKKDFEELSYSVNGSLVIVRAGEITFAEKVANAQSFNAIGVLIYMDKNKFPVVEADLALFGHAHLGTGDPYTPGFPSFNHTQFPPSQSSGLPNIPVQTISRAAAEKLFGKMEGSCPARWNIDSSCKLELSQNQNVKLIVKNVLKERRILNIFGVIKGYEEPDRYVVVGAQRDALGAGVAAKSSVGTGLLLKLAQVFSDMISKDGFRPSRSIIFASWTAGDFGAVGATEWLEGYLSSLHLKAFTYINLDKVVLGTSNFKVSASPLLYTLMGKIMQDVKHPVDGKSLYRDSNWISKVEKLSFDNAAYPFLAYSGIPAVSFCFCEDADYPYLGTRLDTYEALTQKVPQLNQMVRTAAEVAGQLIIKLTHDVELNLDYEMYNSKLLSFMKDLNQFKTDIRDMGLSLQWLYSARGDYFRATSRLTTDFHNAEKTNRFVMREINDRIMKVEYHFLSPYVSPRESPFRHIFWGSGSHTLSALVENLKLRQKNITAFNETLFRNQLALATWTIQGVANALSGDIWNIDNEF

B1: humanized anti-TfR Fab 3A4 VH3/Vκ4 conjugated to DMPK-targeting oligonucleotide ASO300 (Fab, V domains shown)
VH: EVQLVQSGSELKKPGASVKVSCTASGFNIKDDYMYWVRQPPGKGLEWIGWIDPENGDTEYASKFQDRVTVTADTSTNTAYMELSSLRSEDTAVYYCTLWLRRGLDYWGQGTLVTVSS
VL: DIVMTQSPLSLPVTPGEPASISCRSSKSLLHSNGYTYLFWFQQRPGQSPRLLIYRMSNLASGVPDRFSGSGSGTDFTLKISRVEAEDVGVYYCMQHLEYPFTFGGGTKVEIKR
modifications: DMPK-targeting oligonucleotide ASO300 conjugated to the Fab; chain and residue not stated for this example
notes: The oligonucleotide may sit on either chain; also called 3A4 (VH3/Vk4) conjugate; DMPK oligo conjugate
As to B1, the EC50 with recombinant human TfR1 came out at 2.84 nM.

B2: humanized anti-TfR Fab 3M12 VH4/Vκ3 (Fab, V domains shown)
VH: QVQLQESGPGLVKPSQTLSLTCTVTGYSITSGYYWNWIRQPPGKGLEWIGYITFDGANNYNPSLKNRVSISRDTSKNQFSLKLSSVTAEDTATYYCTRSSYDYDVLDYWGQGTTVTVSS
VL: DIQMTQSPSSLSASVGDRVTITCRASQDISNFLNWYQQKPGQPVKLLIYYTSRLHSGVPSRFSGSGSGTDFTLTISSLQPEDFATYYCQQGHTLPYTFGQGTKLEIKR
notes: also called 3M12 (VH4/Vk3); 3M12 VH4/VK3
Regarding B2, the binding result with recombinant human TfR2, in the experiment with recombinant mouse TfR1 and with recombinant rat TfR1 was “no binding” throughout.

One may read the EC50 as the concentration needed to bring the measured effect to its halfway point.
